Laboratory results reported in publication PMC8041205 (2021).

Target: BSA
Assay: ITC

B1: UBE2D1 (R&D) (enzyme)
chain: not shown
Question: With B1 as the binder, how does the Kd read?
Answer: The Kd was > 10 mM.
